Test results reported in patent publication US20250179210A1 (Merck KGaA, published 2025).

Tests used:
[1] = molecular target: T1, huCEACAM8-His6 (C583 Novoprotein) (human, UniProt P31997 35-320, limits assumed); experiment: ELISA, protein coated at 12 nM
T1 construct: also called human CEACAM8
T1 sequence (looked up): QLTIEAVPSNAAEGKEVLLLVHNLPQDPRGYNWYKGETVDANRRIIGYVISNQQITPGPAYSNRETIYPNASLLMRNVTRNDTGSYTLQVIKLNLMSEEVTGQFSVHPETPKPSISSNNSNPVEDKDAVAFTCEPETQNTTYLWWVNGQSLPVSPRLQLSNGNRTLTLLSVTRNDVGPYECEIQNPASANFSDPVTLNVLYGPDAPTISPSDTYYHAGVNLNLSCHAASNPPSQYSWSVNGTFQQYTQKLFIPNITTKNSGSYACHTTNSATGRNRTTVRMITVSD

[2] = molecular target: T2, huPSG1-His6 (CC66 Novoprotein) (human, UniProt P11464 35-419, limits assumed); experiment: ELISA, protein coated at 12 nM
T2 construct: also called human PSG1

[3] = molecular target: T3, huCEACAM1-His6 (2244-CM R&D Systems) (human, UniProt P13688 35-428); experiment: ELISA, protein coated at 12 nM
T3 construct: also called human CEACAM1
T3 sequence (looked up): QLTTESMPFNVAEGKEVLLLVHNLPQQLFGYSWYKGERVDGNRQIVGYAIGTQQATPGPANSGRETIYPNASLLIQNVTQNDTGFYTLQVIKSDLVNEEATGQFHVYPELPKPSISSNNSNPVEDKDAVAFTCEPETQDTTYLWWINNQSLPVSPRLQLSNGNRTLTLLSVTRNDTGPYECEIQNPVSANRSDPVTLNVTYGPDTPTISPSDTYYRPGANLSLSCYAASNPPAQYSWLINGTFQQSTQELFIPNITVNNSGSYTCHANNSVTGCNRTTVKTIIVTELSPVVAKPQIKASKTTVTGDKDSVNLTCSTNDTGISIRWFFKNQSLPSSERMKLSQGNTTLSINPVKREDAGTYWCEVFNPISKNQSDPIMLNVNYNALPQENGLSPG

[4] = molecular target: T4, huCEACAM3-His6 (C449 Novoprotein) (human, UniProt P40198 35-155, limits assumed); experiment: ELISA, protein coated at 12 nM
T4 construct: also called human CEACAM3
T4 sequence (looked up): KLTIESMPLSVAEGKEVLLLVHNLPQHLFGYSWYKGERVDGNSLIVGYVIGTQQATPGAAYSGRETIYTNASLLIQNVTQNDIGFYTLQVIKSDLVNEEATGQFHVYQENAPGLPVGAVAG

[5] = molecular target: T5, huCEACAM7-His6 (C926 Novoprotein) (human, UniProt Q14002 36-242, limits assumed); experiment: ELISA, protein coated at 12 nM
T5 construct: also called human CEACAM7
T5 sequence (looked up): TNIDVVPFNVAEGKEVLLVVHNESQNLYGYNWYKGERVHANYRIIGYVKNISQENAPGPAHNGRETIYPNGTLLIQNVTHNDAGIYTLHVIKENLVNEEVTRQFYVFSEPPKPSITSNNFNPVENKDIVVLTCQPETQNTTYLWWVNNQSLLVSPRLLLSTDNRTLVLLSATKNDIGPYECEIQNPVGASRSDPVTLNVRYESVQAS

[6] = molecular target: T6, huCEACAM6-His6 (3934-CM R&D Systems and recombinant protein obtained from Syngene) (human, UniProt P40199 35-320); experiment: ELISA, protein coated at 12 nM
T6 construct: Two sources of the protein are named; the result is told once; also called human CEACAM6
T6 sequence (looked up): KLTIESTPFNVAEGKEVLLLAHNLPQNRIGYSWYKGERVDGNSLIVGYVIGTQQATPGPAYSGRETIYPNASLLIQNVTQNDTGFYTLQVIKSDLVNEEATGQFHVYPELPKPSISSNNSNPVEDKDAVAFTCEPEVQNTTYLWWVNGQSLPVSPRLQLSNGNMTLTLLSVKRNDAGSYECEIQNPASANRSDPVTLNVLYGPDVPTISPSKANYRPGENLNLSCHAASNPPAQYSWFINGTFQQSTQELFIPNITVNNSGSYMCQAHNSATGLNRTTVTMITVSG

[7] = molecular target: T7, human_CEACAM5_ECD-his-biotin (R&D Systems) (human, UniProt P06731 35-685, biotinylated using routine methods (sites not given)); experiment: BLI (Octet Red), biotinylated antigen captured on streptavidin biosensor, Fab as analyte 6.25-200 nM
T7 construct: Bought protein; not shown: His tag and any linker
T7 sequence: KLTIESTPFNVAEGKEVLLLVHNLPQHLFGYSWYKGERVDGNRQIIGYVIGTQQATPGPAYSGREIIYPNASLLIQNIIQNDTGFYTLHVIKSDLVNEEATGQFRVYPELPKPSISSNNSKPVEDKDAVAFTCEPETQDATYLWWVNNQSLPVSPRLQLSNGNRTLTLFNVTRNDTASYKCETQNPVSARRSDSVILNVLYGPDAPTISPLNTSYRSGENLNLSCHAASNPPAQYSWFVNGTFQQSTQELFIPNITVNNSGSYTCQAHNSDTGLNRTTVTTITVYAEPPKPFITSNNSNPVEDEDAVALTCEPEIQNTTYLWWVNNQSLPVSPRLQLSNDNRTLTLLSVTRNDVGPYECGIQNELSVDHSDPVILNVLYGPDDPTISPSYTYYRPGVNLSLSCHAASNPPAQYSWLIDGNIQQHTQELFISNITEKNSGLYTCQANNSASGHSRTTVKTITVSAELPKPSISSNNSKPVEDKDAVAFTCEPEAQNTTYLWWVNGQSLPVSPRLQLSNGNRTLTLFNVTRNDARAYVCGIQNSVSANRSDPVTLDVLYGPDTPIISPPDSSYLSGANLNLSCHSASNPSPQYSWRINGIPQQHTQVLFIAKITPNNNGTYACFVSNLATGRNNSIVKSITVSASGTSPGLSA

[8] = molecular target: T8, BSA (bovine serum albumin) (bovine, UniProt P02769 25-607); experiment: ELISA
T8 construct: Negative control; also called unrelated protein

[9] = molecular target: T9, huCEACAM5-His6 (R&D Systems #4128-CM) (human, UniProt P06731 35-685); experiment: ELISA, protein coated at 12 nM; Fab, not IgG
T9 construct: Bought protein; also called human CEACAM5; not shown: His6 tag
T9 sequence: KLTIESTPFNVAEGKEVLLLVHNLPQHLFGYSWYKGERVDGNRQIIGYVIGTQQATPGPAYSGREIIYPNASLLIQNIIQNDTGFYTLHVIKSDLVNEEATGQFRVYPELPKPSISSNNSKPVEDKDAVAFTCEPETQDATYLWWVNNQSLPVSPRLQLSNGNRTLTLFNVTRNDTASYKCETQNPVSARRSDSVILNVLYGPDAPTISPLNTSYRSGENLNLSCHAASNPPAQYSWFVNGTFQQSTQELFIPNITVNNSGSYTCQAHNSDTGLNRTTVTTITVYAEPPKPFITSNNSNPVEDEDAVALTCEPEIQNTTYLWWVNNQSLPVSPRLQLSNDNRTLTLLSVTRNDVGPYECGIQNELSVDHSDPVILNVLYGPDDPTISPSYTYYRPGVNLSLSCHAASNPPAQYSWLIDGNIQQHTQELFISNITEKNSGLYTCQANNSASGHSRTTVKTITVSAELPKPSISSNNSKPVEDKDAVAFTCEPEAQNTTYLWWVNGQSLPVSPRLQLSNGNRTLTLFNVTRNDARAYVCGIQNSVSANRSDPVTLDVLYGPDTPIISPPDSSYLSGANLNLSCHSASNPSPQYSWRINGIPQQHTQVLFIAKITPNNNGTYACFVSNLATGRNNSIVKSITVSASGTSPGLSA

T2 sequence (P11464 35-419 limits assumed): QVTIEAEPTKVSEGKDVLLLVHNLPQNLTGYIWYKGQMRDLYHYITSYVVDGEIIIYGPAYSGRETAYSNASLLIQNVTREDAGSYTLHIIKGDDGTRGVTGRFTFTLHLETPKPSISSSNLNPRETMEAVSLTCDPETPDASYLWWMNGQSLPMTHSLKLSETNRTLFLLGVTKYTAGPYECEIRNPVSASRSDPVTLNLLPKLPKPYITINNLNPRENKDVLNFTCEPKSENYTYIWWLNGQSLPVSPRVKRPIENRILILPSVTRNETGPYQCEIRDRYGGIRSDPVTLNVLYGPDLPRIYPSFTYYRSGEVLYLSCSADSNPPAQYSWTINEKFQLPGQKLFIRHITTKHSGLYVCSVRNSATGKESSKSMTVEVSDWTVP
T8 sequence (P02769 25-607 limits assumed): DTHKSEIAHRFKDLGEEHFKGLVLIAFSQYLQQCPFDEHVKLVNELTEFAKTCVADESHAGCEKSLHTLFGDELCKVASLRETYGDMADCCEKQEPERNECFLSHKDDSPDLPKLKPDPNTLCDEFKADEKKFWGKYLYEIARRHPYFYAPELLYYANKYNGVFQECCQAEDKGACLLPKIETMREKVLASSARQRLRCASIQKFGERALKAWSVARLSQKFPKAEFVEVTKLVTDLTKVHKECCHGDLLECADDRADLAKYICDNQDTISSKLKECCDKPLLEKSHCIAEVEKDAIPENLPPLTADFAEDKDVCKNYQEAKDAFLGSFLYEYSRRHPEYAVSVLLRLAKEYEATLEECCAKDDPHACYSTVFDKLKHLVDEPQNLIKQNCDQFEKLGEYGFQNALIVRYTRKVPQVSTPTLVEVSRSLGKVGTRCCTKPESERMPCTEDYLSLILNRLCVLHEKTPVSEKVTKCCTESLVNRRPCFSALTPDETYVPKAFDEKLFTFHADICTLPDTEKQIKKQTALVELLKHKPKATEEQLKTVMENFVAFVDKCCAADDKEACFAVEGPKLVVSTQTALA

B1: Fab of mAb1 (Fab, V domains shown)
VH: EVQLQESGPGLVKPSQTLSLTCTVSDGSVSRGGYYLTWIRQHPGKGLEWIGYIYYSGSTYFNPSLRSRVTMSVDTSKNQFSLKLSSVTAADTAVYYCARGIAVAPFDYWGQGTLVTVSS
VL: EIVLTQSPATLSVSPGERATLSCRTSQSVRSNLAWYQQKPGQAPRLLIYAASTRATGIPARFSGSGSGTEFTLTISSLQSEDFAVYYCQQYTNWPFTFGPGTKVDIK
notes: Fab format of mAb1; also called Fab generated from mAb1
B1: no binding (tested: 1000 nM) [1]; no binding (tested: 1000 nM) [2]; no binding (tested: 1000 nM) [3]. B1: no binding (tested: 1000 nM) [4]; no binding (tested: 1000 nM) [5]; no binding (tested: 1000 nM) [6]. The Kd [7] was 6.3 nM, the binding result [8] was “no binding (tested: all concentrations tested)” and the EC50 [9] was 3.04 nM.
